According to US20140243208, “COMPOSITIONS AND METHODS FOR SELECTING APTAMERS” (Mediomics, LLC, published 2014):
Where a chain is given by its changes, count along the chain named.

B1: TNI-1 (= TNI-B1, TNI-N1, TNI-MEDI1) (ssDNA)
DNA: CTGTCGTTAGTGAAGGTTGGCAACAACGACCGGGACTAACGGCAGCAGCGACACCGGTAACGCCATATCACAGACG
B2: TNI-3 (ssDNA)
DNA: CTGTCGTTAGTGAAGGTTGGCGGCGGACCGGAACGAGCGGCAGTCGCAGTCGACCCCAACGCCATATCACAGACG
B3: TNI-4 (ssDNA)
DNA: CTGTCGTTAGTGAAGGTTGCCAAGCGAACTGCGACAGGGGATCCAGGAGACGGCCCCAACGCCATATCACAGACG
B4: IL-10-3 (ssDNA)
DNA: TAGGTGCTCGACGCTGACCCACGAAAGACACCGCAGTCCCTCCACGCTACTCAGTCGCAGGTCATG
B5: IL-10-6 (ssDNA)
DNA: TAGGTGCTCGACGCTGACCGGGCATTGACACCTTATCGTGGGGTGGGGACTCAGTCGCAGGTCATG
B6: TNI-N3 (= TNI-MEDI2) (ssDNA)
DNA: CTGTCGTTAGTGAAGGTTGGCGCAGGAACCTGAACGTTCGACGGGGTCGGCACCTGTAACGCCATATCACAGACG
B7: TNI-CRP1 (ssDNA)
DNA: TAGGTGCTCGACGCTGACCCAGACCCACCAATATATGCCCCGCGGTGTACTCAGTCGCAGGTCATG
B8: TNI-CRP2 (ssDNA)
DNA: TAGGTGCTCGACGCTGACCCAGGACGGCACCTTAACCGCGCGTGGGCTACTCAGTCGCAGGTCATG
B9: TNI-CRP3 (ssDNA)
DNA: TAGGTGCTCGACGCTGACCCAGGGGACACCTATCAATCGTCGTGCGGTACTCAGTCGCAGGTCATG
B10: TNI-CRP4 (ssDNA)
DNA: TAGGTGCTCGACGCTGACGGGCGACACCGAGGGGGCTGGGGCGCGGGTACTCAGTCGCAGGTCATG
B11: TNI-B2 (= TNI-N2) (ssDNA)
DNA: CTGTCGTTAGTGAAGGTTGCAGGCACGCTGCGATATGTCCAGTTGACCCGGTTTGCCAACGCCATATCACAGACG
B12: TNI-B3 (ssDNA)
DNA: B2 DNA with G35T, G46A
B13: TNI-B4 (ssDNA)
DNA: CTGTCGTTAGTGAAGGTTGCCCCGGGAACCGAAACTTGCGACCTGTCGTCACCTTGTAACGCCATATCACAGACG
B14: TNI-B5 (ssDNA)
DNA: CTGTCGTTAGTGAAGGTTGGCGGCGGACCGGAACGAACGGCAGCAGCGACACCGGTAACGCCATATCACAGACG
B15: TNI-2 (ssDNA)
DNA: B1 DNA with C21T
B16: IL-10-1 (ssDNA)
DNA: TAGGTGCTCGACGCTGACCCAGGGCTACACCTTATCCATTCGCGCGGTACTCAGTCGCAGGTCATG
B17: IL-10-2 (ssDNA)
DNA: TAGGTGCTCGACGCTGACCCAATCCTGACACACCGTATTAAGCCGCGTACTCAGTCGCAGGTCATG
B18: IL-10-4 (ssDNA)
DNA: TAGGTGCTCGACGCTGACCCCCCAGTCACACCTTATGACCGTCCCGCCACTCAGTCGCAGGTCATG
B19: IL-10-5 (ssDNA)
DNA: TAGGTGCTCGACGCTGACCCAGGCACACCTATCCAACTGTCACCGGCCACTCAGTCGCAGGTCATG

target: T1, Alpha-fetoprotein (Homo sapiens, UniProt P02771 P02771:19-609); assay: ELONA; specificity control; conditions: label: hybridized biotin-labeled primer
T1 sequence: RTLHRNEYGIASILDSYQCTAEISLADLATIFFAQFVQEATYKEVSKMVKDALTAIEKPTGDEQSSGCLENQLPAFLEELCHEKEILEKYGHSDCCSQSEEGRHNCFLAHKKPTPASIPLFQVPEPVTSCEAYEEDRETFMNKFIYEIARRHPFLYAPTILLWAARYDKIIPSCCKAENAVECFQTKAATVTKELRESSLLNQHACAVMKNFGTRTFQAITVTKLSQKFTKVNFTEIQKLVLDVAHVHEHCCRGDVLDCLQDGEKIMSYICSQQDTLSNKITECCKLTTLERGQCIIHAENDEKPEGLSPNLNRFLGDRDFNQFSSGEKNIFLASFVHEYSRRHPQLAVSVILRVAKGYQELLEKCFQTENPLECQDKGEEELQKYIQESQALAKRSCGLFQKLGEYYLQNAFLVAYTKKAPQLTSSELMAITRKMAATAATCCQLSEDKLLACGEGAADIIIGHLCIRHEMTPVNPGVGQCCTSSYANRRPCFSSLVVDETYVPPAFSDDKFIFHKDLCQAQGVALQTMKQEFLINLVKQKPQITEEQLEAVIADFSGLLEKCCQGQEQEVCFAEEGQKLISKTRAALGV

Row | Binder | binding result
1 | B1 | no binding
2 | B2 | no binding
3 | B3 | no binding

target: T2, Troponin I (TnI) (Homo sapiens, UniProt P19429 P19429:2-210); assay: ELONA; specificity control; conditions: tags: coated on ELISA plate; label: hybridized biotin-labeled primer
T2 sequence (P19429 2-210, one chain of several): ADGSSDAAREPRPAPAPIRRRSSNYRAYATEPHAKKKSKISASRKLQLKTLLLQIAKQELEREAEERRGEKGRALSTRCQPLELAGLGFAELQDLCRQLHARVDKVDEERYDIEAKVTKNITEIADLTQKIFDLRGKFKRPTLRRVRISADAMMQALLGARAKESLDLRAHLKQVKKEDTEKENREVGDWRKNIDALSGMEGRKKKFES

Row | Binder | binding result
4 | B4 | no binding
5 | B5 | no binding

target: T3, C-reactive protein (CRP) (Homo sapiens, UniProt P02741 P02741:19-224); assay: ELONA; specificity control; conditions: chain copies: 5; label: hybridized biotin-labeled primer
T3 sequence: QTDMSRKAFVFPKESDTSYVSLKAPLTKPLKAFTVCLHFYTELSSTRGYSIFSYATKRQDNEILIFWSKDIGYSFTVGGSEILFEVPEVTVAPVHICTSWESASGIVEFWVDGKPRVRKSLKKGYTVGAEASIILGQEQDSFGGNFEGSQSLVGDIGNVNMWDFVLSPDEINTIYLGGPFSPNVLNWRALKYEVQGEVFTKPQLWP

Row | Binder | binding result
6 | B1 | no binding
7 | B2 | no binding
8 | B3 | no binding
9 | B4 | no binding
10 | B5 | no binding

target: Serum albumin (Homo sapiens, UniProt P02768 P02768:25-609); assay: ELONA; specificity control; conditions: label: hybridized biotin-labeled primer
Sequence (P02768 25-609, one chain of several): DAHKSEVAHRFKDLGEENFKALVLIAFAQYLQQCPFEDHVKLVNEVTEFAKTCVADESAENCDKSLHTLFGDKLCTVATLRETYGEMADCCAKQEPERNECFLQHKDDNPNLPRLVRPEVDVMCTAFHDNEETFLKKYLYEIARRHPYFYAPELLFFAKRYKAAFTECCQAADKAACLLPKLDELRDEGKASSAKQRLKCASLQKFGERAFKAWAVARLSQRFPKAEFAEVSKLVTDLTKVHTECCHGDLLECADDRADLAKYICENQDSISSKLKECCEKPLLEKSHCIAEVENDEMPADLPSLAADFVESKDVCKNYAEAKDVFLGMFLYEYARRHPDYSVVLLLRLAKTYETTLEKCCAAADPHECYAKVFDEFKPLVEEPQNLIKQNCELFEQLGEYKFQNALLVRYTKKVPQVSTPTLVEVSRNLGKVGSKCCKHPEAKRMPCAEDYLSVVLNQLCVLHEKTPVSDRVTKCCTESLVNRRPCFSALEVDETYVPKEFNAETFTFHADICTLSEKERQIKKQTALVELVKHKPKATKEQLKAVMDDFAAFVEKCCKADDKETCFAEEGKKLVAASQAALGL

Row | Binder | binding result
11 | B1 | no binding
12 | B2 | no binding
13 | B3 | no binding
14 | B4 | no binding
15 | B5 | no binding

target: T2, Troponin I (TnI); assay: ELONA; values only in figure; conditions: tags: coated on ELISA plate; label: hybridized biotin-labeled primer

Row | Binder | binding result
16 | B6 | binds
17 | B7 | binds
18 | B8 | binds
19 | B9 | binds
20 | B10 | binds
21 | B11 | binds
22 | B12 | binds
23 | B13 | binds
24 | B14 | binds

target: T2, Troponin I (TnI); assay: ELONA; very similar affinity to the other TNI aptamers; conditions: tags: coated on ELISA plate; label: hybridized biotin-labeled primer

Row | Binder | binding result
25 | B15 | binds

target: Interleukin-10 (IL-10) (Homo sapiens, UniProt P22301 P22301:19-178); assay: ELONA; only IL-10-3 and IL-10-6 of 6 showed potential binding; conditions: tags: coated on ELISA plate; chain copies: 2; label: hybridized biotin-labeled primer
Sequence (P22301 19-178, one chain of several): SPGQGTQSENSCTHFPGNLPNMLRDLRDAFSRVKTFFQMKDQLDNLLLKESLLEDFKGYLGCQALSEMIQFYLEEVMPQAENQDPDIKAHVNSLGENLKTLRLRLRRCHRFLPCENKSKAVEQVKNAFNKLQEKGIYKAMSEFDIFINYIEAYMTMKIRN

Row | Binder | binding result
26 | B16 | no binding
27 | B17 | no binding
28 | B18 | no binding
29 | B19 | no binding
